Tested on: Escherichia coli TOP10
Assay: shrunken log2 fold change of peptide-encoding DNA abundance (4.5 h post-induction vs induction); higher = less antimicrobial activity (less host growth inhibition)
Settings: time post-induction: 4.5 h; library: site-saturation at positions 5, 18, 19, 20
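Also: peptides expressed intracellularly from a pBAD plasmid library in pooled LB shake-flask culture, induced with 0.3% L-arabinose, DNA abundance read by NGS, three biological replicates, DESeq2 with apeglm shrinkage.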

Sequence	shrunken log2 fold change
RRIRLRPPRLPRPRPRPLRYPRP	-0.0797
RRIRKRPPRLPRPRPRPTAEPRP	0.079
RRIRCRPPRLPRPRPRPSIWPRP	-0.342
RRIRPRPPRLPRPRPRPEPHPRP	0.298
RRIRFRPPRLPRPRPRPEYEPRP	-0.211
RRIRIRPPRLPRPRPRPMTIPRP	-1.16
RRIRFRPPRLPRPRPRPPSTPRP	0.342
RRIRPRPPRLPRPRPRPRTGPRP	1.03
RRIRWRPPRLPRPRPRPFEQPRP	0.0143
RRIRARPPRLPRPRPRPRIFPRP	0.213
RRIRARPPRLPRPRPRPIFAPRP	0.555
RRIRYRPPRLPRPRPRPQKEPRP	-0.245
RRIRTRPPRLPRPRPRPHCQPRP	-0.359
RRIRSRPPRLPRPRPRPQIGPRP	-1.62
RRIRNRPPRLPRPRPRPSFRPRP	0.0751
RRIRSRPPRLPRPRPRPELNPRP	0.399
RRIRVRPPRLPRPRPRPFQFPRP	-0.171
RRIRYRPPRLPRPRPRPDEQPRP	-0.00172
RRIRVRPPRLPRPRPRPMQFPRP	0.0422
RRIRYRPPRLPRPRPRPGYFPRP	-0.624
RRIRLRPPRLPRPRPRPAPAPRP	0.512
RRIRTRPPRLPRPRPRPQAPPRP	-0.1
RRIRERPPRLPRPRPRPAMHPRP	0.0193
RRIRWRPPRLPRPRPRPDNSPRP	-0.0707
RRIRKRPPRLPRPRPRPFLRPRP	0.13

Sequence	shrunken log2 fold change
RRIRRRPPRLPRPRPRPASTPRP	-0.0241
RRIRQRPPRLPRPRPRPMMPPRP	0.0665
RRIRNRPPRLPRPRPRPWTYPRP	-0.351
RRIRGRPPRLPRPRPRPQVQPRP	0.273
RRIRKRPPRLPRPRPRPQFPPRP	-0.00782
RRIRFRPPRLPRPRPRPELLPRP	0.146
RRIRTRPPRLPRPRPRPCFPPRP	-0.141
RRIRRRPPRLPRPRPRPIACPRP	0.0283
RRIRERPPRLPRPRPRPTPCPRP	0.0922
RRIRNRPPRLPRPRPRPASYPRP	-0.148
RRIRIRPPRLPRPRPRPMVLPRP	-0.071
RRIRPRPPRLPRPRPRPRVCPRP	0.298
RRIRTRPPRLPRPRPRPRFHPRP	0.192
RRIRLRPPRLPRPRPRPIVFPRP	-0.0377
RRIRQRPPRLPRPRPRPYLLPRP	-0.0483
RRIRHRPPRLPRPRPRPGCDPRP	0.123
RRIRFRPPRLPRPRPRPMQEPRP	0.0233
RRIRERPPRLPRPRPRPFLCPRP	-0.143
RRIRVRPPRLPRPRPRPPEWPRP	-0.00654
RRIRNRPPRLPRPRPRPIAHPRP	-0.0737
RRIRGRPPRLPRPRPRPQKSPRP	0.316
RRIRTRPPRLPRPRPRPSWLPRP	0.11
RRIRARPPRLPRPRPRPRVYPRP	0.441
RRIRLRPPRLPRPRPRPFSYPRP	-0.747
RRIRKRPPRLPRPRPRPQIVPRP	0.119

Sequence	shrunken log2 fold change
RRIRFRPPRLPRPRPRPLASPRP	-0.0784
RRIRWRPPRLPRPRPRPFFNPRP	-0.267
RRIRERPPRLPRPRPRPQACPRP	-0.0746
RRIRGRPPRLPRPRPRPNPFPRP	0.189
RRIRIRPPRLPRPRPRPTGIPRP	-0.0849
RRIRFRPPRLPRPRPRPGDWPRP	0.666
RRIRLRPPRLPRPRPRPANKPRP	-0.0711
RRIRVRPPRLPRPRPRPRMSPRP	-0.079
RRIRMRPPRLPRPRPRPCRMPRP	-0.0205
RRIRGRPPRLPRPRPRPADQPRP	0.887
RRIRHRPPRLPRPRPRPTWKPRP	-0.011
RRIRIRPPRLPRPRPRPSKEPRP	-0.202
RRIRTRPPRLPRPRPRPRPRPRP	0.81
RRIRERPPRLPRPRPRPHQPPRP	0.202
RRIRYRPPRLPRPRPRPINRPRP	-0.018
RRIRCRPPRLPRPRPRPLWLPRP	-0.0572
RRIRQRPPRLPRPRPRPSRKPRP	0.111
RRIRGRPPRLPRPRPRPMVVPRP	0.434
RRIRQRPPRLPRPRPRPQKHPRP	-0.324
RRIRSRPPRLPRPRPRPVGPPRP	0.373
RRIRTRPPRLPRPRPRPCHPPRP	-0.0634
RRIRLRPPRLPRPRPRPIWCPRP	-0.0514
RRIRVRPPRLPRPRPRPTSCPRP	0.961
RRIRNRPPRLPRPRPRPGDGPRP	0.292
RRIRIRPPRLPRPRPRPYSCPRP	-0.0992

Sequence	shrunken log2 fold change
RRIRYRPPRLPRPRPRPPCSPRP	-0.957
RRIRLRPPRLPRPRPRPYGIPRP	-0.00489
RRIRCRPPRLPRPRPRPNSWPRP	0.0889
RRIRVRPPRLPRPRPRPVSRPRP	0.37
RRIRGRPPRLPRPRPRPRGHPRP	1.11
RRIRDRPPRLPRPRPRPVAYPRP	-0.0825
RRIRARPPRLPRPRPRPKFVPRP	0.301
RRIRGRPPRLPRPRPRPIMTPRP	2.36
RRIRYRPPRLPRPRPRPKIYPRP	-0.884
RRIRTRPPRLPRPRPRPDRRPRP	0.0647
RRIRQRPPRLPRPRPRPDMNPRP	-0.654
RRIRMRPPRLPRPRPRPWFQPRP	0.134
RRIRGRPPRLPRPRPRPVHEPRP	0.434
RRIRNRPPRLPRPRPRPACFPRP	0.0188
RRIRQRPPRLPRPRPRPQRRPRP	0.0498
RRIRNRPPRLPRPRPRPVWCPRP	-0.226
RRIRDRPPRLPRPRPRPITFPRP	-0.822
RRIRTRPPRLPRPRPRPVINPRP	-0.189
RRIRPRPPRLPRPRPRPPVTPRP	0.147
RRIRQRPPRLPRPRPRPACDPRP	0.0239
RRIRNRPPRLPRPRPRPYARPRP	-0.0034
RRIRWRPPRLPRPRPRPQCSPRP	0.221
RRIRVRPPRLPRPRPRPPMLPRP	-0.037
RRIRVRPPRLPRPRPRPAYKPRP	-0.181
RRIRVRPPRLPRPRPRPMQVPRP	0.121

Sequence	shrunken log2 fold change
RRIRLRPPRLPRPRPRPWGQPRP	-0.0472
RRIRHRPPRLPRPRPRPDVMPRP	-0.374
RRIRARPPRLPRPRPRPELGPRP	1.43
RRIRYRPPRLPRPRPRPKPLPRP	0.276
RRIRARPPRLPRPRPRPRKPPRP	0.114
RRIRNRPPRLPRPRPRPIYHPRP	-0.526
RRIRVRPPRLPRPRPRPENMPRP	-0.0886
RRIRMRPPRLPRPRPRPNEDPRP	0.186
RRIRSRPPRLPRPRPRPKNTPRP	-0.356
RRIRGRPPRLPRPRPRPYMEPRP	-0.164
RRIRERPPRLPRPRPRPRMSPRP	-0.254
RRIRIRPPRLPRPRPRPTSQPRP	-0.283
RRIRCRPPRLPRPRPRPVPVPRP	0.0927
RRIRIRPPRLPRPRPRPQDYPRP	-0.162
RRIRCRPPRLPRPRPRPEFQPRP	0.0126
RRIRRRPPRLPRPRPRPTHNPRP	0.695
RRIRLRPPRLPRPRPRPNKLPRP	-0.307
RRIRYRPPRLPRPRPRPVETPRP	-0.0299
RRIRHRPPRLPRPRPRPAQQPRP	-0.0312
RRIRVRPPRLPRPRPRPQGEPRP	-0.227
RRIRVRPPRLPRPRPRPIKYPRP	-0.169
RRIRKRPPRLPRPRPRPVYPPRP	0.293
RRIRSRPPRLPRPRPRPGEGPRP	0.367
RRIRMRPPRLPRPRPRPQFMPRP	-0.241
RRIRWRPPRLPRPRPRPAYFPRP	0.125

Source: the supplement of paper PMC9112550, “Optimization of the antimicrobial peptide Bac7 by deep mutational scanning” (BMC Biology, 2022)
